In patent US20040002450A1, “Y17 - isolated molecules comprising epitopes containing sulfated moieties, antibodies to such epitopes, and uses thereof” (priority 2000, published 2004):

Tested on: Jurkat cells
Test: FACS binding to Jurkat cells
Design: species or system human
Details: 1 μg scFv-Y1 versus 5 ng IgG-Y1; two-step staining
From the text: The present invention is directed to Y1 and Y17 multimers prepared by any known method in the art. A preferred method of forming multimers, and especially dimers, employs the use of cysteine residues to form disulfide bonds between two monomers. In this embodiment, dimers are formed by adding a cysteine on the carboxyl terminus of the scFvs (referred to as Y1-cys scFv or Y1 dimer) in order to facilitate dimer formation. After the DNA construct was made (See Example 2D and 6D) and used for transfection, Y1 dimers were expressed in a production vector and refolded in vitro. The protein was analyzed by SDS-PAGE, HPLC, and FACS. […] Two peaks were detected by SDS-PAGE (non-reduced) and by gel filtration. The peaks were collected separately and analyzed by FACS. […] Conditions for dimer refolding were determined, and material comprising >90% dimers (mg quantities) was produced after subsequent dialysis, chromatographic, and gel filtration steps. […]
FACS analysis was performed on Jurkat cells using a “three step staining procedure.” First, crude extracts or purified unlabeled scFv are stained, then mouse anti-myc antibodies, and finally, FITC— or PE-conjugated anti-mouse antibodies. […] After the final staining step, cells were fixed by re-suspending in PBS, 1% BSA, 2% formaldehyde, and then read by FACS (Becton-Dickinson).

B1: Y1 scFv: fully human scFv clone binding platelets and myelogenous leukemia cells; SEQ ID NO: 25, heavy chain CDR3 SEQ ID NO: 8 (protein, listed as Homo sapiens)
scFv: MKYLLPTAAAGLLLLAAQPAMAEVQLVESGGGVVRPGGSLRLSCAASGFTFDDYGMSWVRQAPGKGLEWVSGINWNGGSTGYADSVKGRFTISRDNAKNSLYLQMNSLRAEDTAVYYCARMRAPVIWGQGTLVTVSRGGGGSGGGGSGGGGSSELTQDPAVSVALGQTVRITCQGDSLRSYYASWYQQKPGQAPVLVIYGKNNRPSGIPDRFSGSSSGNTASLTITGAQAEDEADYYCNSRDSSGNHVVFGGGTKLTVLGAAAEQKLISEEDLNGAA
fold more molecules needed for a level of detection similar to IgG-Y1: approximately 10^3 fold
